This passage reports luciferase reporter (SRE/STAT) RLU in rat stellate cell lysate results from patent US20030109000A1.

The target of the assay is cell-surface PDGF receptors (on rat stellate cells) (rat). In words: cell-based or functional assay.

“PDGF-D GFD dimer (from UniProt Q5RA73 250-370) (ligand)” displayed a luciferase reporter (SRE/STAT) RLU in rat stellate cell lysate at 0.3 ng/ml of 160 RLU, a luciferase reporter (SRE/STAT) RLU in rat stellate cell lysate at 1 ng/ml of 278 RLU, a luciferase reporter (SRE/STAT) RLU in rat stellate cell lysate at 3 ng/ml of 400 RLU and a luciferase reporter (SRE/STAT) RLU in rat stellate cell lysate at 10 ng/ml of 542 RLU. The substance further registered a luciferase reporter (SRE/STAT) RLU in rat stellate cell lysate at 30 ng/ml of 672 RLU, a luciferase reporter (SRE/STAT) RLU in rat stellate cell lysate at 100 ng/ml of 826 RLU and a luciferase reporter (SRE/STAT) RLU in rat stellate cell lysate at 300 ng/ml of 883 RLU.
